These results are taken from PMC5424160 (2017).

The test has as its target GST-CDK9 (Homo sapiens (Human), UniProt P50750). Briefly: GST pull-down.

Sequence of GST-CDK9 (P50750 whole entry): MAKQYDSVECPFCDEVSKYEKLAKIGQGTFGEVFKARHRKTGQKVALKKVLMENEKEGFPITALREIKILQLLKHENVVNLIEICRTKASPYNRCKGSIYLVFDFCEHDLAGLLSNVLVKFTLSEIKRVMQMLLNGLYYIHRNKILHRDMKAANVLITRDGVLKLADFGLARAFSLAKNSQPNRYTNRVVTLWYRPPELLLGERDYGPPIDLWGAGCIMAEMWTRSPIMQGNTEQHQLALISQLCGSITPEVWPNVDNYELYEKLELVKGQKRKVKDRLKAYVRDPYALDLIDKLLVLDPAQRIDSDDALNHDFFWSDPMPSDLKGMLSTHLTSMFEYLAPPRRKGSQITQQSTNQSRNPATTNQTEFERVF

B1: His-Menin (protein)
chain: MGLKAAQKTLFPLRSIDDVVRLFAAELGREEPDLVLLSLVLGFVEHFLAVNRVIPTNVPELTFQPSPAPDPPGGLTYFPVADLSIIAALYARFTAQIRGAVDLSLYPREGGVSSRELVKKVSDVIWNSLSRSYFKDRAHIQSLFSFITGTKLDSSGVAFAVVGACQALGLRDVHLALSEDHAWVVFGPNGEQTAEVTWHGKGNEDRRGQTVNAGVAERSWLYLKGSYMRCDRKMEVAFMVCAINPSIDLHTDSLELLQLQQKLLWLLYDLGHLERYPMALGNLADLEELEPTPGRPDPLTLYHKGIASAKTYYRDEHIYPYMYLAGYHCRNRNVREALQAWADTATVIQDYNYCREDEEIYKEFFEVANDVIPNLLKEAASLLEAGEERPGEQSQGTQSQGSALQDPECFAHLLRFYDGICKWEEGSPTPVLHVGWATFLVQSLGRFEGQVRQKVRIVSREAEAAEAEEPWGEEAREGRRRGPRRESKPEEPPPPKKPALDKGLGTGQGAVSGPPRKPPGTVAGTARGPEGGSTAQVPAPTASPPPEGPVLTFQSEKMKGMKELLVATKINSSAIKLQLTAQSQVQMKKQKVSTPSDYTLSFLKRQRKGL
On to B1, for which the binding result is listed as “no binding”.
